Source: IntAct's records for PubMed 32911434

B1: Nuclear factor erythroid 2-related factor 2 (Homo sapiens), Q16236 (parent)
chain: MMDLELPPPGLPSQQDMDLIDILWRQDIDLGVSREVFDFSQRRKEYELEKQKKLEKERQEQLQKEQEKAFFAQLQLDEETGEFLPIQPAQHIQSETSGSANYSQVAHIPKSDALYFDDCMQLLAQTFPFVDDNEVSSATFQSLVPDIPGHIESPVFIATNQAQSPETSVAQVAPVDLDGMQQDIEQVWEELLSIPELQCLNIENDKLVETTMVPSPEAKLTEVDNYHFYSSIPSMEKEVGNCSPHFLNAFEDSFSSILSTEDPNQLTVNSLNSDATVNTDFGDEFYSAFIAEPSISNSMPSPATLSHSLSELLNGPIDVSDLSLCKAFNQNHPESTAEFNDSDSGISLNTSPSVASPEHSVESSSYGDTLLGLSDSEVEELDSAPGSVKQNGPKTPVHSSGDMVQPLSPSQGQSTHVHDAQCENTPEKELPVSPGHRKTPFTKDKHSSRLEAHLTRDELRAKALHIPFPVEKIINLPVVDFNEMMSKEQFNEAQLALIRDIRRRGKNKVAAQNCRKRKLENIVELEQDLDHLKDEKEKLLKEKGENDKSLHLLKKQLSTLYLEVFSMLRDEDGKPYSPSEYSLQQTRDGNVFLVPKSKKPDVKKN
partner: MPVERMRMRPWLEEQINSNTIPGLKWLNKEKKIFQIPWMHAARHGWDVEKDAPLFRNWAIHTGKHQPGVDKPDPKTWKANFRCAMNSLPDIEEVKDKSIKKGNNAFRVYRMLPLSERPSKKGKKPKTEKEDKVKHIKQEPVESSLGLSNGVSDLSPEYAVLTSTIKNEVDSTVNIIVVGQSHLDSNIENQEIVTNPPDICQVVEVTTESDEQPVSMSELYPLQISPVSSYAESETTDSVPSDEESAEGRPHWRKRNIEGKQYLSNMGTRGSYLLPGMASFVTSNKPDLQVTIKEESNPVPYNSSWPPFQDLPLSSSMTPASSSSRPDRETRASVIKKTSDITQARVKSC
B2: Nuclear factor erythroid 2-related factor 2 (Homo sapiens), Q16236 (parent)
chain: B1 chain
B3: Nuclear factor erythroid 2-related factor 2 (Homo sapiens), Q16236 (parent)
chain: B1 chain
partner: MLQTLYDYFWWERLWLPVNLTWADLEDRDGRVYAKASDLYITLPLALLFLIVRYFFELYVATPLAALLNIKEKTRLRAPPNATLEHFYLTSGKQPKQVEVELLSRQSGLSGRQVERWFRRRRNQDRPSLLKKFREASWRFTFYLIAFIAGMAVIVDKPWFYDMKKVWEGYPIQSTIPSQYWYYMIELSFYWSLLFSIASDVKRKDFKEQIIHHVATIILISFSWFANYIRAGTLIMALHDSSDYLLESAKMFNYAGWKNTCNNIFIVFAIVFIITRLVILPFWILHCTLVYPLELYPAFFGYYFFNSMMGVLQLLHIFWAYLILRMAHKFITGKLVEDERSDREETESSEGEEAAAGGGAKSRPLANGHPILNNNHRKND

Variants of: B1
Conditions: with irf2_human IRF2, P14316

Row | Variant | effect of a mutation on the interaction
1 | T559D | decreasing interaction strength
2 | S408A | decreasing interaction strength
3 | Y576E | decreasing interaction strength
4 | Y576F | decreasing interaction strength

Variants of: B2
Conditions: with brpf3_human BRPF3, Q9ULD4
Chain of brpf3_human BRPF3, Q9ULD4 (Q9ULD4 whole entry): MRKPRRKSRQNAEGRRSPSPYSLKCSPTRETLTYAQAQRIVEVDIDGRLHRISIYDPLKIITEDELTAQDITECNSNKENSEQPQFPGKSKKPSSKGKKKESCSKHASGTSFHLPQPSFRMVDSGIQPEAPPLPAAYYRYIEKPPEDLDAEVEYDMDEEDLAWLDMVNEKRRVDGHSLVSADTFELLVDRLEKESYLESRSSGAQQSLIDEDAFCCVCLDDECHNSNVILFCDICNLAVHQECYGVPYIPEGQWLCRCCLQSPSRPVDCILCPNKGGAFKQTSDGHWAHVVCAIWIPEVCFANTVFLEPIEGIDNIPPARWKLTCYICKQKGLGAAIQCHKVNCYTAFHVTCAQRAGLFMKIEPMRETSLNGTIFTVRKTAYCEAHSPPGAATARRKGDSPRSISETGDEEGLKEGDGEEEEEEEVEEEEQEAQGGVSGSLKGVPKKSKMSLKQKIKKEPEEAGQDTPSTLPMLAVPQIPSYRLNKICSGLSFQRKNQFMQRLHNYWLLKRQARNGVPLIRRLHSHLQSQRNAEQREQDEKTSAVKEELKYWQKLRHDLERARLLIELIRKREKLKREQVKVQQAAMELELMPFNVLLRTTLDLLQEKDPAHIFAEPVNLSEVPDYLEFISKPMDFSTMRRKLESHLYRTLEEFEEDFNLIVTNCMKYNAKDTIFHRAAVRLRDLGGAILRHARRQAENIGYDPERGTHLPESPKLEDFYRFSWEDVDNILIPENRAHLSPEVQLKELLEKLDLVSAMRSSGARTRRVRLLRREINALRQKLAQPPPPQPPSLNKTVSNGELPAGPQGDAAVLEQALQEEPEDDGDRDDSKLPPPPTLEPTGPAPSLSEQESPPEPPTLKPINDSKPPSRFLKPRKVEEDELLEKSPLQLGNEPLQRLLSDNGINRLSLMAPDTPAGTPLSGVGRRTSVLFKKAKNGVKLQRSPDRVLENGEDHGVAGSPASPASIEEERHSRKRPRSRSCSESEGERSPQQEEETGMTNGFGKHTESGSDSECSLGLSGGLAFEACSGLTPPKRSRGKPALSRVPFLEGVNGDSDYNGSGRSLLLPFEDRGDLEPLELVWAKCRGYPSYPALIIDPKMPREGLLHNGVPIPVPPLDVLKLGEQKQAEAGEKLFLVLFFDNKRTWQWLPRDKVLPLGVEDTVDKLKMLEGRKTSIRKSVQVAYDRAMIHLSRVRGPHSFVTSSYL

Row | Variant | effect of a mutation on the interaction
5 | T559D | decreasing interaction strength
6 | S408A | decreasing interaction strength
7 | Y576F | decreasing interaction strength
8 | Y576E | decreasing interaction strength

Variants of: B2
Conditions: with ima1_human KPNA2, P52292

Row | Variant | effect of a mutation on the interaction
9 | T559D | decreasing interaction strength
10 | Y576E | decreasing interaction strength

Variants of: B2
Conditions: with tf65_human RELA

Row | Variant | effect of a mutation on the interaction
11 | S40D | increasing interaction strength

Variants of: B2
Conditions: with apex1_human APEX1, P27695
Chain of apex1_human APEX1, P27695 (P27695 whole entry): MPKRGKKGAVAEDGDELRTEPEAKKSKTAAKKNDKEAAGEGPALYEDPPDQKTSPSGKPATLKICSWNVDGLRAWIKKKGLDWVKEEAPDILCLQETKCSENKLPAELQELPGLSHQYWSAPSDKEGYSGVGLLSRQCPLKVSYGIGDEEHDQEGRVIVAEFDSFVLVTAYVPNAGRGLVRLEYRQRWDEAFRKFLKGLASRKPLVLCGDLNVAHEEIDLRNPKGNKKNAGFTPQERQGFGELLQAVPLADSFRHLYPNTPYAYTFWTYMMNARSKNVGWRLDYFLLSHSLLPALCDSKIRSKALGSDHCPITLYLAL

Row | Variant | effect of a mutation on the interaction
12 | S40D | increasing interaction strength

Variants of: B3
Conditions: with cers2_human CERS2, Q96G23

Row | Variant | effect of a mutation on the interaction
13 | Y576E | increasing interaction strength
